Legend:
[1] = molecular target: T1, human ROR1 (hROR1) on cells (human, UniProt Q01973 30-937); experiment: FACS, HEK293T-hROR1 cells; cytometer saturated
T1 construct: whole, on cells; the cell line is named under assay; also called HEK293T-hROR1; 293T-hROR1
Protocol: (§1) The binding properties were characterized by FACS. The recombinant antibodies obtained above were serially diluted to 9 different concentrations and incubated for 1 h, and then determined for the binding ability with HEK293T-hROR1, CHO-K1-cynoROR1 and A549 cell lines (endogenously expressing ROR1), respectively. The secondary antibody was then incubated for 1 h. The results are shown in FIG. 4-6 and Table 7-2 below.

[2] = molecular target: T2, cynomolgus ROR1 (cynoROR1) on CHO-K1 cells (cynomolgus, UniProt A0A2K5WTX7 30-937); experiment: FACS, CHO-K1-cynoROR1 cells
T2 construct: whole, on cells; also called CHO-K1-cynoROR1; CHO-K1-cyROR1
Protocol: as §1

[3] = molecular target: T1, human ROR1 (hROR1) on cells; experiment: cell-based or functional assay
[4] = molecular target: T3, hROR2ECD-his (human, UniProt Q01974 34-403); experiment: ELISA, plate coated with hROR2 ECD-his
T3 construct: extracellular domain; bought, Acrobiosystems R02-H52E5; also called huROR2-his
T3 sequence (Q01974 34-403): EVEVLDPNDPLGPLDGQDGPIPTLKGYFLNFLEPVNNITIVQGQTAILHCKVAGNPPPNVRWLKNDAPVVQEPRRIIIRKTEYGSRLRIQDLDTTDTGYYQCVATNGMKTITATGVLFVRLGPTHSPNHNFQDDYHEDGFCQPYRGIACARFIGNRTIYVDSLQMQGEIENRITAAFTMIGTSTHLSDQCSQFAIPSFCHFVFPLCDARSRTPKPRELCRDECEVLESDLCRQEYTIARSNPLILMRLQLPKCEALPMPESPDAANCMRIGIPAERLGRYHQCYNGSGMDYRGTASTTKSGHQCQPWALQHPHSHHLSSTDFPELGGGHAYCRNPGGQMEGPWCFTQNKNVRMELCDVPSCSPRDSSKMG
Protocol: (§2) Screening by ELISA assay: 96-well plates (Corning 9018) were coated with 1 μg/mL hROR1 ECD-his/hROR2 ECD-his/mROR1 ECD-his proteins prepared with PBS in Example 1a above and incubated at 4° C. overnight. The liquid was then discarded, and the plates were washed 3 times with PBST, blocked with 5% milk for 2 h at room temperature, and washed 3 times with PBST. The taken supernatant was added at 100 μL/well, and the plates were incubated at room temperature for 1 h, followed by washing 3 times with PBST. 100 μL/well of secondary antibody (Sigma, Cat#: A8592) was added, the plates were incubated at room temperature for 1 h, and then washed. TMB was then added to the plates at 100 μL/well and incubated for 15 min at room temperature. Thereafter, the reaction was terminated and data were read.
(§3) a. Results of ELISA assay (the ELISA assay was performed according to the same procedures as in Example 2c, except that the added samples were recombinant antibodies and the secondary antibody was a-Fc (Genscript, Cat#: A01854))
The corresponding values in the table are the measured median fluorescence intensity (MFI).

[5] = molecular target: ROR1 (antigen of the KD determination and of the Octet dissociation measurement) (UniProt Q01973 30-403, limits assumed); experiment: method not stated (conventional procedures)
ROR1 (antigen of the KD determination and of the Octet dissociation measurement), sequence (Q01973 30-403 limits assumed): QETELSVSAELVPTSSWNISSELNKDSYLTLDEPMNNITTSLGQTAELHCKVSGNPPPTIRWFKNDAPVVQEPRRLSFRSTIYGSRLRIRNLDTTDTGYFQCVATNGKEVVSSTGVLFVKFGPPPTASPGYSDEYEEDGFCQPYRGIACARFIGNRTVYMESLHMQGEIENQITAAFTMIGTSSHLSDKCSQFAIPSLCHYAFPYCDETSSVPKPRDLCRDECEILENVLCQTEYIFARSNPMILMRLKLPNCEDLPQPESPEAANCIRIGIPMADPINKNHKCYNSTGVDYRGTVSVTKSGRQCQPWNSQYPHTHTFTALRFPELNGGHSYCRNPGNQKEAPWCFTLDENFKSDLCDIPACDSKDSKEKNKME

[6] = molecular target: T1, human ROR1 (hROR1) on cells; experiment: FACS, HEK293T-hROR1 cells
Protocol: as §1

[7] = molecular target: T3, hROR2ECD-his; experiment: ELISA, plate coated with hROR2 ECD-his; remark: listed apart in the source
Protocol: as §2, §3

[8] = molecular target: T1, human ROR1 (hROR1) on cells; experiment: FACS, A549 cells
Protocol: as §1

[9] = molecular target: T1, human ROR1 (hROR1) on cells; experiment: cell-based or functional assay; remark: listed apart in the source
[10] = molecular target: T4, Human ROR1-ECD-his (human, UniProt Q01973 30-406); experiment: ELISA, plate coated with hROR1 ECD-his
T4 construct: extracellular domain; bought, Acrobiosystems RO1-H522y; also called hROR1-ECD-his; hROR1 ECD-his
T4 sequence (Q01973 30-406): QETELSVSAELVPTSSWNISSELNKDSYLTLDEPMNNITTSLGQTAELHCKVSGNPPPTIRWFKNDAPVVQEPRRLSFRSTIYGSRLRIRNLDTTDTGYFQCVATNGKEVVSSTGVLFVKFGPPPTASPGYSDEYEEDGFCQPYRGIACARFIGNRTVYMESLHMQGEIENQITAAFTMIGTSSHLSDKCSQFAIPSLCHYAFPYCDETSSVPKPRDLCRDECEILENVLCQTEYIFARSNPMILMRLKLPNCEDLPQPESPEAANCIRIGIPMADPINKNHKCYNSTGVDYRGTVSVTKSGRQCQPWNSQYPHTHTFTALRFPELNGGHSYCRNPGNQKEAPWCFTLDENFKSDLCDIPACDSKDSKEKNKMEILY
Protocol: as §2, §3

[11] = molecular target: T1, human ROR1 (hROR1) on cells; experiment: flow cytometry (FACS) on HEK293T-hROR1 cells, antibody 0.01-100 nM, median fluorescence intensity
Protocol: as §1

[12] = molecular target: T2, cynomolgus ROR1 (cynoROR1) on CHO-K1 …; experiment: flow cytometry (FACS) on CHO-K1-cynoROR1 cells, antibody 0.01-100 nM, median fluorescence intensity
Protocol: as §1

[13] = molecular target: T1, human ROR1 (hROR1) on cells; experiment: flow cytometry (FACS) on A549 cells (endogenous ROR1), antibody 0.01-100 nM, median fluorescence intensity
Protocol: as §1

T1 sequence (Q01973 30-937): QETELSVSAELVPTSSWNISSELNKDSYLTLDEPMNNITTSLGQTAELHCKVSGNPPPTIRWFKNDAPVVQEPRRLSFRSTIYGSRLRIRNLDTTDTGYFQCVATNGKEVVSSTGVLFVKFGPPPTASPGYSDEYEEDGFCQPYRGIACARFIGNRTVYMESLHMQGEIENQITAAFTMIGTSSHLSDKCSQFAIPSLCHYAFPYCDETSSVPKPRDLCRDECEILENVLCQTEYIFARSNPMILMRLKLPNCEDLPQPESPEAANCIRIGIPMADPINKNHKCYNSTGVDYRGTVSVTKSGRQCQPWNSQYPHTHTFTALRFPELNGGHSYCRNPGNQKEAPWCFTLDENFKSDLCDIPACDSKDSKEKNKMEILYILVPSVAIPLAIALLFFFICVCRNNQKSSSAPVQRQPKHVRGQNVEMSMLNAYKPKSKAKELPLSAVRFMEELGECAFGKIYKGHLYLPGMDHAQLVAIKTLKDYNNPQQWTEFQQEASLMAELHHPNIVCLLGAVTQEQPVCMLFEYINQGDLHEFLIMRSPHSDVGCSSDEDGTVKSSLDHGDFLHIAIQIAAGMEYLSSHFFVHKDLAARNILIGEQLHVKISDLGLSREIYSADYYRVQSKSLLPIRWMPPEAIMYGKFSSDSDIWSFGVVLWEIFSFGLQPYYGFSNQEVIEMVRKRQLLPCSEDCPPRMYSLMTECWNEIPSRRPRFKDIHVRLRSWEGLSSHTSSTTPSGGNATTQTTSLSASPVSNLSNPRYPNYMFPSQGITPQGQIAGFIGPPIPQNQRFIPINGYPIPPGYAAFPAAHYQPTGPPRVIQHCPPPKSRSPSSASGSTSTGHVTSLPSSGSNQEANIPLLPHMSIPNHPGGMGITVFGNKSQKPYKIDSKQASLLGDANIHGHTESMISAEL

B1: PR001353 (antibody, V domains shown)
VH: QVQLVESGGGVVQPGRSLRLSCVASGFTFSSYGMHWVRQAPGKGLEWVSVAWYDGISKDYADSVKGRFTISRDNSMNTLFLQMNSLRAEDTAVYYCAREQARSFDLWGRGTLVTVSS
VL: not shown
notes: fully human IgG1, kappa
[1]
  MAX(MFI): 262000 MFI
[2]
  MAX(MFI): 29000 MFI
[3]
  ADCC Cytotoxicity (%), Donor 1, 1 nM: 30.5%
  ADCC Cytotoxicity (%), Donor 1, 10 nM: 42.3%
  ADCC Cytotoxicity (%), Donor 2, 1 nM: 14.1%
  ADCC Cytotoxicity (%), Donor 2, 10 nM: 21.5%
[4]
  binding result: no binding
[5]
  Kd: 2.21 nM
  koff: 0.000927 s⁻¹
  kon: 419000 M⁻¹ s⁻¹
[6]
  fold lower EC50 than reference PR000374: 10 fold
[7]
  ELISA signal (called MFI): 0.031
[8]
  MAX(MFI): 4330 MFI
[9]
  endocytosis EC50(nM) (a-hFc-MMAF killing, CTG luminescence): 0.149 nM
[10]
  ELISA signal (called MFI): 2.54

B2: PR001416 (antibody, human IgG1, kappa, V domains shown)
VH: QVQLVESGGGVVQPGRSLRLSCAASGFTFSTYGMHWVRQAPGKGLEWVAVIWYDGSDKDYADSVKGRFTISRDTSKNTLYLQMNSLRAEDTAVYYCAREQARSFDLWGRGTLVTVSS
VL: DIVMTQSPSTLSASVGDRVTITCRASQTINNWLAWYQQKPGKAPKLLIYKASSLESGVPSRFSGSGSGTEFTLTISSLQPDDFATYYCQQYNSYSPMYTFGQGTKVEIKR
notes: fully human IgG1, kappa
[11]
  EC50 (read off the curve): ~2 nM
[4]
  binding result: no binding
[5]
  Kd: 1.27 nM
  koff: 0.000342 s⁻¹
  kon: 270000 M⁻¹ s⁻¹
[12]
  EC50 (read off the curve): ~1 nM
[6]
  fold lower EC50 than reference PR000374: 10 fold
[7]
  ELISA signal (called MFI): 0.0265
[13]
  EC50 (read off the curve): ~0.4 nM
[10]
  ELISA signal (called MFI): 2.45

B3: PR001419 (antibody, V domains shown)
VH: QVQLVESGGGVVQPGRSLRLSCAASGFTFSSYGMHWVRQAPGKGLEWVAIIWYDGISKNYADSVKGRFTISRDMSNNTVYLQMNSLRAEDTAVYYCAKEQARSFDLWGRGTLVTVSS
VL: not shown
notes: fully human IgG1, kappa
[11]
  EC50 (read off the curve): ~3 nM
[4]
  binding result: no binding
[5]
  Kd: 3.01 nM
  koff: 0.00117 s⁻¹
  kon: 389000 M⁻¹ s⁻¹
[12]
  EC50 (read off the curve): ~0.7 nM
[6]
  fold lower EC50 than reference PR000374: 10 fold
[7]
  ELISA signal (called MFI): 0.025
[13]
  EC50 (read off the curve): ~0.2 nM
[10]
  ELISA signal (called MFI): 2.44

B4: PR001417 (antibody, V domains shown)
VH: QVQLVESGGGVVQPGRSLRLSCAASGFSFSSYAMHWVRQAPGRGLEWVAVIWYDGGDEDYIDSVKGRFTISRDDSKNTLYLQMNSLRAEDTAVYYCAREQARSFDLWGRGTLVTVSS
VL: DVVMTQSPSTLSASVGDRVTITCRASQSINSWLAWYQQKPGKAPKLLIYKASSLESGVPSRFSGSGSGTEFTLTISSLQPDDFATYYCQQYNSYSPMYTFGQGTKVEIKR
notes: fully human IgG1, kappa
[11]
  EC50 (read off the curve): ~3 nM
[4]
  binding result: no binding
[5]
  Kd: 14.9 nM
  koff: 0.00646 s⁻¹
  kon: 433000 M⁻¹ s⁻¹
[12]
  EC50 (read off the curve): ~2 nM
[6]
  fold lower EC50 than reference PR000374: 10 fold
[7]
  ELISA signal (called MFI): 0.027
[13]
  EC50 (read off the curve): ~0.9 nM
[10]
  ELISA signal (called MFI): 2.38

B5: PR001359 (antibody, human IgG1, kappa, V domains shown)
VH: QVQLVESGGGVVQPGRSLRLSCAASGFTFSTYGMHWVRQAPGKGLEWVAVTWYDGSDKDYADSVKGRFTISRDTSKNTLYLQMNSLRAEDTAVYYCAREQARSFDLWGRGTLVTVSS
VL: DIVMTQSPSTLSASVGDRVTITCRASQSVNNWLAWYQQKPGKAPKLLIYKASSLESGVPSRFSGSGSGTEFTLTISSLQPDDFATYYCQQYKSYSPMYTFGQGTKVEIKR
notes: fully human IgG1, kappa
[1]
  MAX(MFI): 262000 MFI
[2]
  MAX(MFI): 27200 MFI
[3]
  ADCC Cytotoxicity (%), Donor 1, 1 nM: 33.7%
  ADCC Cytotoxicity (%), Donor 1, 10 nM: 39.5%
  ADCC Cytotoxicity (%), Donor 2, 1 nM: 21.9%
  ADCC Cytotoxicity (%), Donor 2, 10 nM: 26.1%
[4]
  binding result: no binding
[5]
  Kd: 2 nM
  koff: 0.000637 s⁻¹
  kon: 320000 M⁻¹ s⁻¹
[6]
  fold lower EC50 than reference PR000374: 10 fold
[7]
  ELISA signal (called MFI): 0.038
[8]
  MAX(MFI): 3930 MFI
[10]
  ELISA signal (called MFI): 2.39

B6: PR001418 (antibody, human IgG1, kappa, V domains shown)
VH: QVQLVESGGGVVQPGRSLRLSCAASGFTFSSYGMHWVRQAPGKGLEWVAVIWYDGSDKDYADSVKGRFTISRDTSKNTLYLQMNSLRAEDTAVYYCAREQARSFDLWGRGTLVTVSS
VL: DIVMTQSPSTLSASVGDRVTITCRASQTINNWLAWYQQKPGKAPKLLIYKASSLESGVPSRFSGSGSGTEFTLTISSLQPDDFATYYCQQYNSYSPMYTFGQGTKLEIKR
notes: fully human IgG1, kappa
[11]
  EC50 (read off the curve): ~3 nM
[4]
  binding result: no binding
[5]
  Kd: 1.45 nM
  koff: 0.000423 s⁻¹
  kon: 292000 M⁻¹ s⁻¹
[12]
  EC50 (read off the curve): ~1 nM
[6]
  fold lower EC50 than reference PR000374: 10 fold
[7]
  ELISA signal (called MFI): 0.042
[13]
  EC50 (read off the curve): ~0.4 nM
[10]
  ELISA signal (called MFI): 2.42

B7: PR001355 (antibody, human IgG1, kappa, V domains shown)
VH: QVQLVQSGGGLVQPGGSLRLSCAASGFTFSSYGMHWVRQAPGKGLEWVAVIWYDGSNKDYADSVKGRFTISRDTSKNTLYLQMNSLRAEDTAVYYCVREQARSFDLWGRGTLVTVSS
VL: DIQMTQSPSSLSASVGDRVTITCRASQTMNNWLAWYQQKPGKAPKLLIYKASSLESGVPSRFSGSGSGTEFTLTISSLQPDDSATYYCQQYNSYSPMYTFGQGTKLEIKR
notes: fully human IgG1, kappa
[1]
  MAX(MFI): 262000 MFI
[2]
  MAX(MFI): 30000 MFI
[3]
  ADCC Cytotoxicity (%), Donor 1, 1 nM: 25.7%
  ADCC Cytotoxicity (%), Donor 1, 10 nM: 29%
  ADCC Cytotoxicity (%), Donor 2, 1 nM: 14.1%
  ADCC Cytotoxicity (%), Donor 2, 10 nM: 14.2%
[4]
  binding result: no binding
[5]
  Kd: 0.839 nM
  koff: 0.000291 s⁻¹
  kon: 347000 M⁻¹ s⁻¹
[6]
  fold lower EC50 than reference PR000374: 10 fold
[7]
  ELISA signal (called MFI): 0.0285
[8]
  MAX(MFI): 4240 MFI
[10]
  ELISA signal (called MFI): 2.54

B8: PR001415 (antibody, human IgG1, kappa, V domains shown)
VH: EVQLVESGGGVVQPGRSLRLSCAASGFTFSNSGMHWVRQAPGKGLEWVAIMWYDGSNKDYADSVKGRFTISRDTSKNTLYLQMNSLRAEDTAVYYCAREQARSFDLWGRGTLVTVSS
VL: DIVMTQSPSTLSASVGDRVTITCRASQTINNWLAWYQQKPGKAPKLLIYKASSLESGVPSRFSGSGSGTEFTLTISSLQPDDFATYYCQQYNSYSPMYTFGQGTKVEIKR
notes: fully human IgG1, kappa
[11]
  EC50 (read off the curve): ~3 nM
[4]
  binding result: no binding
[5]
  Kd: 1.53 nM
  koff: 0.000512 s⁻¹
  kon: 336000 M⁻¹ s⁻¹
[12]
  EC50 (read off the curve): ~0.9 nM
[6]
  fold lower EC50 than reference PR000374: 10 fold
[7]
  ELISA signal (called MFI): 0.03
[13]
  EC50 (read off the curve): ~0.4 nM
[10]
  ELISA signal (called MFI): 2.61

B9: PR001357 (antibody, human IgG1, kappa, V domains shown)
VH: QVQLVQSGGGVVQPGRSLRLSCAASGFTFSSYGMHWVRQAPGKGLEWVAVIWYDGSNKDYADSVKGRFTISRDTSKNTLYLQMNSLRAEDTAVYYCAREQARSFDLWGRGTLVTVSS
VL: DIQLTQSPYSLSASVGDRVTITCRASQTINNWLAWYQQKPGKAPKLLIYKASSLESGVPSRFSGSGSGTEFTLTISSLQPDDFATYYCQQYKLYSPMYTFGQGTKVEIKR
notes: fully human IgG1, kappa
[1]
  MAX(MFI): 262000 MFI
[2]
  MAX(MFI): 24600 MFI
[3]
  ADCC Cytotoxicity (%), Donor 1, 1 nM: 32.1%
  ADCC Cytotoxicity (%), Donor 1, 10 nM: 32.1%
  ADCC Cytotoxicity (%), Donor 2, 1 nM: 17.4%
  ADCC Cytotoxicity (%), Donor 2, 10 nM: 15.8%
[4]
  binding result: no binding
[5]
  Kd: 0.481 nM
  koff: 0.000191 s⁻¹
  kon: 397000 M⁻¹ s⁻¹
[6]
  fold lower EC50 than reference PR000374: 10 fold
[7]
  ELISA signal (called MFI): 0.04
[8]
  MAX(MFI): 4550 MFI
[9]
  endocytosis EC50(nM) (a-hFc-MMAF killing, CTG luminescence): 0.137 nM
[10]
  ELISA signal (called MFI): 2.5

From patent publication US20240010721A1 (HARBOUR BIOMED SHANGHAI, published 2024)
